{"source": "IntAct's records for PubMed 15678106", "parents": {"B1": {"name": "Tumor protein p73 (Homo sapiens), O15350-1 (parent)", "chain": "MAQSTATSPDGGTTFEHLWSSLEPDSTYFDLPQSSRGNNEVVGGTDSSMDVFHLEGMTTSVMAQFNLLSSTMDQMSSRAASASPYTPEHAASVPTHSPYAQPSSTFDTMSPAPVIPSNTDYPGPHHFEVTFQQSSTAKSATWTYSPLLKKLYCQIAKTCPIQIKVSTPPPPGTAIRAMPVYKKAEHVTDVVKRCPNHELGRDFNEGQSAPASHLIRVEGNNLSQYVDDPVTGRQSVVVPYEPPQVGTEFTTILYNFMCNSSCVGGMNRRPILIIITLEMRDGQVLGRRSFEGRICACPGRDRKADEDHYREQQALNESSAKNGAASKRAFKQSPPAVPALGAGVKKRRHGDEDTYYLQVRGRENFEILMKLKESLELMELVPQPLVDSYRQQQQLLQRPSHLQPPSYGPVLSPMNKVHGGMNKLPSVNQLVGQPPPHSSAATPNLGPVGPGMLNNHGHAVPANGEMSSSHSAQSMVSGSHCTPPPPYHADPSLVSFLTGLGCPNCIEYFTSQGLQSIYHLQNLTIEDLGALKIPEQYRMTIWRGLQDLKQGHDYSTAQQLLRSSNAATISIGGSGELQRQRVMEAVHFRVRHTITIPNRGGPGGGPDEWADFGFDLPDCKARKQPIKEEFTEAEIH"}}, "data": [{"variants_of": "B1", "conditions": "with itch_human ITCH", "values": [{"variant": "Y487F", "effect of a mutation on the interaction": "disrupting interaction"}]}]}
